Patent publication US20210040194A1 (AstraZeneca / MedImmune, published 2021)
Substitutions are numbered along the chain they refer to.

Key:
Human ANG-2 (huAng2) [1] = molecular target: T1, Human ANG-2 (huAng2) (human, UniProt O15123 19-496, limits assumed); assay: cell-based or functional assay
T1 sequence (looked up): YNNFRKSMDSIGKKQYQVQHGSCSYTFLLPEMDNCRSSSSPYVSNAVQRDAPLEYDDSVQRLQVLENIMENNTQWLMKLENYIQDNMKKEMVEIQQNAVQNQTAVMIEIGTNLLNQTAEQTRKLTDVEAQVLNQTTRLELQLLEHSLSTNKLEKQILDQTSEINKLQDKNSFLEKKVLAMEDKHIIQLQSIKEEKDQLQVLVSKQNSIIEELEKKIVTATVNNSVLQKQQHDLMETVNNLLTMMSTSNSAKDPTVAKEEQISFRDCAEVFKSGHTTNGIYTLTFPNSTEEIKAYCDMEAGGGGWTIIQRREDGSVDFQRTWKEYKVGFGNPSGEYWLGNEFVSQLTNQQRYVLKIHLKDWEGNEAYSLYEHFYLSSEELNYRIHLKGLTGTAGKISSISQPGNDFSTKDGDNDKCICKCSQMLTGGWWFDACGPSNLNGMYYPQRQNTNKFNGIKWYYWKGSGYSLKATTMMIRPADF

mouse Ang2 = molecular target: T2, mouse Ang2 (mouse, UniProt O35608 19-496, limits assumed); assay: cell-based or functional assay
T2 sequence (looked up): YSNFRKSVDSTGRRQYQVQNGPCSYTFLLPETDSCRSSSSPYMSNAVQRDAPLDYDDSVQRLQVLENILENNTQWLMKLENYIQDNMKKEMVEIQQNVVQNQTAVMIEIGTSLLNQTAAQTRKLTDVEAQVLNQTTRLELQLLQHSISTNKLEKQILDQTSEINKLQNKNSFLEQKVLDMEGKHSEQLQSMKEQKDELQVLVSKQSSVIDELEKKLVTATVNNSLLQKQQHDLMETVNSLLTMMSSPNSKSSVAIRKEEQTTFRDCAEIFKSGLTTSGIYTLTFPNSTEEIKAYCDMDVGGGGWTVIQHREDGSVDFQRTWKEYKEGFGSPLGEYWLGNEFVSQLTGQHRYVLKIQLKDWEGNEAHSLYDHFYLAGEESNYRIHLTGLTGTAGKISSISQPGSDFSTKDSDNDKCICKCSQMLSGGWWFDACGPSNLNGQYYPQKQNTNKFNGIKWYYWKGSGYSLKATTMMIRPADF

cyno Ang2 = molecular target: T3, cyno Ang2 (cyno, UniProt A0A2K5VNX6 19-496); assay: cell-based or functional assay
T3 sequence: T1 sequence (looked up) with E258G, I279V, F284L, I291V, G410A, A468G, D477G

Human ANG-2 (huAng2) [2] = molecular target: T1, Human ANG-2 (huAng2); assay: KinExA equilibrium, standard affinity model (ref [Ligand])
Experimental: (§1) Human ANG-2 (huAng2) protein was coated onto UltraLink® Biosupport beads (PIERCE, Rockford, Ill.) at concentrations of 5 mg/mL and 30 mg/mL in coating buffer (50 mM sodium carbonate buffer, pH 9). Coated beads were then separated (gentle pulse spin) from unreacted huAng2 protein solution, and blocked with 1M Tris, pH 8, containing BSA at 10 mg/mL) for approximately 15 minutes at room temperature. After this, the bead slurry was spun to remove the blocking solution, and then the block step was repeated for approximately 2 hours using fresh block buffer, and stored at 4° C. until used. Prior to use, the huAng2-coated beads were transferred to a bead vial, resuspended in approximately 27 mLs of instrument buffer (HBS-P buffer, pH 7.4; contains 10 mM HEPES, 0.15M NaCl, 0.005% P20+0.02% NaN3), and affixed to the KinExA instrument. […] These concentrations of bispecific antibody were chosen to allow measurements to be made under both receptor- and KD-controlled conditions, which would allow for more rigorous estimations of reagent activity and affinity, respectively. Two-fold serial dilutions of huAng2 protein were then titrated across nine of the tubes containing the bispecific solutions, followed by 10-fold-dilutions across two more tubes, leaving one tube as the bispecific-only, “zero” control. […]

Human ANG-2 (huAng2) [3] = molecular target: T1, Human ANG-2 (huAng2); assay: KinExA equilibrium, alternate model (ref [IgG])
Experimental: as §1

B1: BiS3Ab-VEGF H1RK-ANG-2 (bispecific antibody, human IgG1, kappa)
heavy: not shown
light: EIVLTQSPATLSLSPGERATLSCRASQSVHSSYLAWYQQKPGQAPRLLIYGASSRATGIPDRFSGSGSGTDFTLTISRLEPEDFAVYYCQQSYRTPSFGQGTRLEIKRTVAAPSVFIFPPSDEQLKSGTASVVCLLNNFYPREAKVQWKVDNALQSGNSQESVTEQDSKDSTYSLSSTLTLSKADYEKHKVYACEVTHQGLSSPVTKSFNRGEC
notes: Full-length IgG (Fab arm anti-VEGF-A) with an anti-ANG-2 scFv linked to the C-terminus of each heavy chain (BiS3 format); also called BiSAb-VEGF H1RK-ANG-2; Bs3Ab-VEGF-Ang2
With B1 the “Hu pTie2 EC50 (nM), Hek293-Tie2 cells” value (Human ANG-2 (huAng2) [1]) was 2.29 nM, the “Mu pTie2 EC50 (nM)” value (mouse Ang2) was 12.2 nM and the “Cyno pTie2 EC50 (nM)” value (cyno Ang2) was 3.47 nM. The Kd (Human ANG-2 (huAng2) [2]) was 23.3 pM and the Kd (Human ANG-2 (huAng2) [3]) was 4.35 pM.
